Reference: patent US20240309052A1

Tests used:
[1] = molecular target: recombinant mouse CD96-his (788806; Biolegend) (mouse) (UniProt Q3U0X8); assay: SPR (Biacore T200), single-cycle kinetics, mCD96-his captured by anti-His, 1:1 Langmuir fit
[2] = molecular target: recombinant mouse CD226-his (50232-M08H; SinoBiological) (mouse) (UniProt Q8K4F0); assay: SPR (Biacore T200), single-cycle kinetics, mCD226-his captured by anti-His, 1:1 Langmuir fit
[3] = molecular target: recombinant mouse TIGIT-Fc-his (771808; Biolegend) (mouse) (UniProt P86176); assay: SPR (Biacore T200), single-cycle kinetics, mTIGIT-Fc-his captured by anti-His, 1:1 Langmuir fit
Sequence of UniProt P86176 (P86176 29-148 limits assumed): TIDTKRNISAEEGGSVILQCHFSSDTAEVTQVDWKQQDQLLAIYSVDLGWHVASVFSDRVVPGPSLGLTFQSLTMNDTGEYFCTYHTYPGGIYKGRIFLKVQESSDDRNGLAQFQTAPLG

Sequence of UniProt Q3U0X8 (Q3U0X8 22-536 limits assumed): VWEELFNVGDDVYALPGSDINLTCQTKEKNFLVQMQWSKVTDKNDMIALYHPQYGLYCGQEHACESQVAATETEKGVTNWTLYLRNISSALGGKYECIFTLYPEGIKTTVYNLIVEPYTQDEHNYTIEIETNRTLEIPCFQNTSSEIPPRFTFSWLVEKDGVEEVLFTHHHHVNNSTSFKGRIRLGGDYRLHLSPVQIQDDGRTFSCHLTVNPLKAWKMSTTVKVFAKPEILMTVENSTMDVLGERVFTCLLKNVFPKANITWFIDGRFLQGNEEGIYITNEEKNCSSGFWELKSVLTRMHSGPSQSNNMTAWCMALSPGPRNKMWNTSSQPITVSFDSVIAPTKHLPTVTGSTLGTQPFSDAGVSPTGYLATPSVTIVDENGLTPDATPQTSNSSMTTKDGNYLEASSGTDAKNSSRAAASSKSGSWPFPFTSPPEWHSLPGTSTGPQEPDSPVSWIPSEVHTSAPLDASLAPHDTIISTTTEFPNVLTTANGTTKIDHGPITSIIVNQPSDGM
Sequence of UniProt Q8K4F0 (Q8K4F0 19-254 limits assumed, stated change not applied): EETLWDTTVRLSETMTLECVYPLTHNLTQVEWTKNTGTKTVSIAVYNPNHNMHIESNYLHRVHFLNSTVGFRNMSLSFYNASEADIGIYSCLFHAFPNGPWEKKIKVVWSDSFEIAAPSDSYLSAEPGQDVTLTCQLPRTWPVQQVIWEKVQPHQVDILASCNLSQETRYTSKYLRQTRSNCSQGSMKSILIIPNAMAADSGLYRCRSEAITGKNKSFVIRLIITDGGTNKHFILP

PVR-Fc (786608; Biolegend), full-length mouse PVR ECD-Fc (Fc fusion)
Kd [1]: 4.07 nM
koff [1]: 0.00455 s⁻¹
kon [1]: 1.17e+06 M⁻¹ s⁻¹
Kd [2]: 0.83 nM
Kd [3]: 2.26 nM
koff [3]: 0.0646 s⁻¹
kon [3]: 2.25e+07 M⁻¹ s⁻¹
